Values of other authors in patent US10105305B2, “Compositions and methods for promoting skin regeneration and hair growth” (THE JOHNS HOPKINS UNIVERSITY, priority 2014, dated 2018).

Conditions: in solution; cited from earlier work

For “LL-37: 37 amino acid cathelicidin peptide, SEQ ID NO:1, residues 134-170 of hCAP18”, the “resistance to proteolytic degradation” value is listed as “significantly resistant to proteolytic degradation in solution”.
